Assay [1] concerns the target T1, human EGFR/HER1/ErbB1 Protein (His Tag, Sino Biological; Cat. Number 10001-H08H) (human, UniProt P00533 25-645).
T1 construct: Bought; construct not described; not shown: His tag
In words: direct ELISA, EGFR coated, streptavidin-HRP detection. As for the experimental part: (§1) 96-well maxisorp (Nunc) immunosorp plates were coated with 2 ug/ml of human PDGFRa (Sino Biological; Cat. Number; 10556-HCCH) or 2 ug/ml human EGFR/HER1/ErbB1 Protein (His Tag, Sino Biological; Cat. Number; 10001-H08H) in PBS, 100 ul per well, at 4C overnight. Wells were washed thrice in PBS. Unspecific binding sites were blocked in 4% BSA/PBS for 1 h at RT, followed by washing thrice in PBS. VHH-biotin conjugates, diluted at 0.01-100 nM in 1% BSA/PBS, were incubated for 1 h at RT, followed by washing thrice in PBS. Streptavidin-horseradish peroxidase (HRP; GeneTex) was diluted 1:40,000 in 1% BSA/PBS and was incubated for 1 h at RT. PDGFRa or EGFR was detected with positive control antibodies rabbit anti-human PDGFRa/CD140a Antibody, (Cat no: 10556-R065) or rabbit anti-human EGFR/HER1/ErbB1 (Catalog no: 10001-R021, both from Sino Biological) diluted in 1% BSA/PBS at 1:5000 and were incubated for 1 h at RT, shaking. Secondary HRP-conjugated anti-rabbit-antibody was diluted at 1:5000 in 1% BSA/PBS and was incubated for 1 h at RT, shaking. Wells were washed 6 times in PBS. o-Phenylenediamine dihydrochloride (OPD; Sigma-Aldrich) was used as HRP substrate at 0.4 mg/ml in 0.05 M phosphate-citrate buffer pH 5.0 with 0.03% sodium perborate (Sigma-Aldrich), prepared according to the manufacturer's recommendations, and was used in volume of 100 ul per well. Reaction was allowed to proceed for 30 min at RT in dark, and was stopped by adding 50 ul of 1.5 M HCl. Optical density was measured at 492 nm on a Synergy H1 microplate reader (BioTek).

In assay [2] the target is T2, human PDGFRa (Sino Biological; Cat. Number 10556-HCCH) (human, UniProt P16234 24-524, limits assumed).
T2 construct: Bought; construct not described; also called PDGFRα
The assay can be described thus: direct ELISA, PDGFRa coated, streptavidin-HRP detection. As for the experimental part:
as §1
VHH-biotin binding to human PDGFRa was assessed using an ELISA, where wells were coated with PDGFRa, and VHH-biotin binding was detected using streptavidin-HRP with OPD as a substrate.

Assay [3] concerns the target T3, human PDGFR β extra-cellular domain (ECD), Fc- and His-tagged (Sino Biological) (human, UniProt P09619 33-532).
T3 construct: extracellular domain; Bought; also called hECD; Fc/His-tagged PDGFR β ECD; not shown: Fc tag and His tag
In words: biotin-streptavidin ELISA, human PDGFR β ECD coated at 1 ug/ml. As for the experimental part:
(§2) In this example, the binding affinity of biotin-conjugated VHHs 1B5 and 1E12 to either human or mouse PDGFR β extra-cellular domain (ECD) was assessed using biotin-streptavidin ELISA. Human or mouse PDGFR β ECD was coated on immunoassay wells, where 1B5-biotin or 1E12-biotin were captured. Binding was detected using streptavidin-HRP and ODP as a substrate.
ELISA Method 96-well maxisorp (Nunc) immunosorp plates were coated with 1 ug/ml or 2 ug/ml of PDGFR β extracellular domain (ECD; Fc- and His-tagged, Sino Biological) or mouse PDGFR β ECD (R&D Systems) 4 ug/ml in PBS, 100 ul per well, at 4C overnight. Wells were washed thrice in PBS. Unspecific binding sites were blocked in 4% BSA/PBS for 1h at RT, followed by washing thrice in PBS. VHHs 1B5-biotin or 1E12-biotin, diluted at 0.01-100 nM in 1% BSA/PBS, was allowed to bind on ECD for 1 h at RT, followed by washing thrice in PBS. Streptavidin-horseradish peroxidase (HRP; GeneTex) was diluted 1:10,000 in 1% BSA/PBS and was incubated for 1 h at RT. […] Optical density was measured at 492 nm on a Synergy H1 microplate reader (BioTek). […]
A general note: ELISA stands for enzyme-linked immunosorbent assay.

The target in assay [4] is human PDGFR β ECD (U-protein Express, Utrecht) (human) (UniProt P09619). In words: dose response ELISA on immobilized PDGFR β.
Assay [5] has the same target. In words: dose response ELISA, PDGFR β ECD coated at 2 µg/ml, rabbit anti-VHH detection.
Assay [6] deals with T3, human PDGFR β extra-cellular domain …. The assay can be described thus: SPR (Biacore 3000), Fc/His PDGFR β ECD captured on protein A; 1D4 construct not stated. As for the experimental part:
(§3) FIG. 11: VHH (flag-his-tagged, or conjugated with HL488, NOTA or 800 CW) binding to human extracellular domain (ECD) of PDGFR β assessed with surface plasmon resonance (SPR). Fc/His-tagged PDGFR β ECD was bound to protein A chemically conjugated to CM4 sensor chip. Binding of VHHs was tested at 0.39-50 nM. Shown are representative SPR Biacore traces of tagged or conjugated 1B5 VHH (panels A); tagged or conjugated 1D4 VHH (panels B); tagged or conjugated 1H4 VHH (panels C) or tagged VHH 1E12 (panel D).
(§4) SPR analysis was performed using the Biacore 3000 instrument (GE Healthcare). Protein A was chemically bound to a CM4 sensor chip (GE Healthcare) according to the primary amine procedure to approximately 2100 response units (RU). Fc/His-tagged PDGFR β ECD at 0.4-2.07 ng/ul was bound to protein A at flow rate of 35 ul/min. Run buffer HBS-EP (GE Healthcare; 0.01 M HEPES pH 7.4, 0.15 M NaCl, 3 mM EDTA, 0.005% v/v Surfactant P20) was used for VHHs 1D4, 1H4 and 1E12 conjugates at 50, 25, 12.5, 6.25, 3.13, 1.56, 0.78 and 0.39 nM. For 1B5 conjugates, HBS-EP+0.5 M NaSCN was as run buffer to reduce non-specific binding to a control path without PDGFR β ECD. A flow rate 70 ul/min was used for VHH injections in volumes of 150 ul. Regeneration of the sensor CM4 chip was performed by three successive injections of c. 30 s 10 mM glycine-HCl pH 2, 10 mM glycine-HCl pH 1.5, and 0.5 M NaSCN/10 mM NaOH.

In assay [7] the target is T4, mouse PDGFR β ECD (R&D Systems) (mouse, UniProt P05622 32-531).
T4 construct: extracellular domain; Bought; also called mECD; mouse ECD
T4 sequence (looked up): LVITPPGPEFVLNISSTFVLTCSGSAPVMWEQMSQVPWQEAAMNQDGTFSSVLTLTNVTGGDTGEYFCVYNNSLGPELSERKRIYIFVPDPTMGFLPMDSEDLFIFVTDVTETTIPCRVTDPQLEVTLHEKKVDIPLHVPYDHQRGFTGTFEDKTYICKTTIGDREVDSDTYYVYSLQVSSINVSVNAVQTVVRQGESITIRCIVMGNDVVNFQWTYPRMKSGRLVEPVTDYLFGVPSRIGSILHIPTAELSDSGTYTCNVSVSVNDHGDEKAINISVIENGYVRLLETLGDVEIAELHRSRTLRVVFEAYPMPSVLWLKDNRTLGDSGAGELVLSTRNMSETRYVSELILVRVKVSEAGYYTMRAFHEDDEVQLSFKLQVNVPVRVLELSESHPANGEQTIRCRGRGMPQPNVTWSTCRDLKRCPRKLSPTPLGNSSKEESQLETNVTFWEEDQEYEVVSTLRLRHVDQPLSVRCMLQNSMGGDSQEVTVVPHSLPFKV
In words: biotin-streptavidin ELISA, mouse PDGFR β ECD coated at 4 ug/ml. As for the experimental part:
as §2
ELISA Method 96-well maxisorp (Nunc) immunosorp plates were coated with 1 ug/ml or 2 ug/ml of PDGFR β extracellular domain (ECD; Fc- and His-tagged, Sino Biological) or mouse PDGFR β ECD (R&D Systems) 4 ug/ml in PBS, 100 ul per well, at 4C overnight. Wells were washed thrice in PBS. Unspecific binding sites were blocked in 4% BSA/PBS for 1h at RT, followed by washing thrice in PBS. VHHs 1B5-biotin or 1E12-biotin, diluted at 0.01-100 nM in 1% BSA/PBS, was allowed to bind on ECD for 1 h at RT, followed by washing thrice in PBS. Streptavidin-horseradish peroxidase (HRP; GeneTex) was diluted 1:10,000 in 1% BSA/PBS and was incubated for 1 h at RT. […] Optical density was measured at 492 nm on a Synergy H1 microplate reader (BioTek).

In assay [8] the target is T3, human PDGFR β extra-cellular domain …. The assay can be described thus: SPR (Biacore 3000), Fc/His PDGFR β ECD captured on protein A; only 1E12-Flag-His was run in SPR. As for the experimental part: as §3, §4

Where only a bound is given, the exact number is not on record here.

A word on the EC50: it is the concentration at which the effect is half-maximal. One may read the Kd as the free concentration of one partner at which half of the binding sites on the other are occupied at equilibrium, for simple one-to-one binding.

B1: 1B5-biotin (VHH)
VHH: EVQLVESGGGLVQPGGSLRLSCVASGFSFSESAMSWVRQAPGKGLEWLSGISSGGGRSTTYAESVEGRFTISRDDAKNTLMLQMNSLKSEDTAVYYCAKTGYCSGYNCNFAPRGQGTQVTVSS
modifications: Biotin-maleimide on the C-terminal cysteine of the C-Direct tag
notes: ID NO: 25 or 26; also called VHH 1B5-biotin; biotin-conjugated 1B5; not shown: C-terminal C-Direct tag with a free cysteine and an EPEA purification tag (vector pYQVQ11)
For B1, the binding result in assay [1] and in assay [2] was “no binding (tested: 0.01-100 nM)” each time. Further, in assay [3], the EC50 is 0.117 nM.

B2: QPD-1D4 (VHH)
VHH: EVQLVESGGGLVQAGDSLRLSCAVSGRAQSRDVVGWFRQAPGKEREFLALVTRSYSTYYGASVKGRFTISRDNAKNTVHLEMNSLKPEDTGVYYCAADQGFCSGSGCYDWRTFHVWGQGTQVTVSS
notes: Purified, unconjugated VHH; also called VHH 1D4
Take B2: the apparent binding affinity in assay [4] was found to be 0.5 nM. The apparent affinity in assay [5] is less than 1 nM. The molecule also gave a Kd in assay [6] of approximately 0.02 nM.

B3: 1E12-biotin (VHH)
VHH: EVQLVESGGGLVQAGGSLRLSCAPSERSFSAYLMGWFRQAQGKEREFVAAWRWPTSTTYYSDSGKGRFTITGDNAKNTVELEMNSLKPEDTAVYYCAARRGILYGPATSPTAYDFWGQGTQVTVSS
modifications: Biotin-maleimide on the C-terminal cysteine of the C-Direct tag
notes: ID NO: 31 or 32; also called VHH 1E12-biotin; biotin-conjugated 1E12; not shown: C-terminal C-Direct tag with a free cysteine and an EPEA purification tag (vector pYQVQ11)
Take B3: the binding result in assay [1] and in assay [2] was “no binding (tested: 0.01-100 nM)” throughout. Besides, the EC50 in assay [7] was 1.1 nM.

B4: 1E12-Flag-His (VHH)
VHH: EVQLVESGGGLVQAGGSLRLSCAPSERSFSAYLMGWFRQAQGKEREFVAAWRWPTSTTYYSDSGKGRFTITGDNAKNTVELEMNSLKPEDTAVYYCAARRGILYGPATSPTAYDFWGQGTQVTVSS
notes: Made in E. coli; ID NO: 31 or 32 (N-terminal residue differs); also called VHH 1E12 (flag-his-tagged); tagged VHH 1E12; not shown: C-terminal FLAG-His tag from vector pMEK222
In assay [8], B4 came in with a Kd of approximately 100 nM.

The record behind these values is patent publication US20240174755A1 (published 2024).
